In patent US20240092919A1 (Ablynx, published 2024):
Read-outs that look alike come from different tables or passages of the source.

How the values were obtained:
[1] = target: T1, cynomolgus CD123 on cells (cynomolgus monkey); experiment: flow cytometry on transfected cells, cynomolgus CD123 against human CD123
T1 construct: whole, on cells; also called HEK293 cyno CD123; cynomolgus CD123 transfected cell lines

human GPC3 on cells [2] = target: T2, human GPC3 on cells (human, UniProt P51654 25-554); experiment: cell-based or functional assay
[3] = target: T3, human TCR on primary human T cells (human, UniProt P01848 1-140; P01850 1-176); experiment: cell-based or functional assay
T3 TCR alpha (looked up): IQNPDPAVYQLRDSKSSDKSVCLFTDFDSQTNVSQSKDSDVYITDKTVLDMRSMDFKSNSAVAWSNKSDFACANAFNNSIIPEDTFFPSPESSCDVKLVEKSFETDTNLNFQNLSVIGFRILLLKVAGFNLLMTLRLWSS
T3 TCR beta (looked up): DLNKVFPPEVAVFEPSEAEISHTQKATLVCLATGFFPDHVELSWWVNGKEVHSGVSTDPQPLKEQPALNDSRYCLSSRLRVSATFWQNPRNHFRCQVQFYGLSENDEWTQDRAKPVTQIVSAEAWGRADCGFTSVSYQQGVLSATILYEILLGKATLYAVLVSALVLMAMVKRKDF

[4] = target: cynomolgus TCR on primary cynomolgus T cells (cynomolgus); experiment: cell-based or functional assay
human GPC3 on cells [5] = target: T2, human GPC3 on cells; experiment: flow cytometry, binding to Huh-7 cells
human GPC3 (recombinant) = target: T4, human GPC3 (recombinant) (human, UniProt P51654 25-559); experiment: SPR, ProteOn XPR36; GPC3 captured on anti-His antibody
T4 construct: also called human Glypican-3
Protocol: (§1) Recombinant GPC3 proteins were captured on a GLC Sensor Chip (Biorad) immobilized with THE anti-His antibody (Genscript, cat no ABIN387699) via amine coupling, using EDC and NHS chemistry (running buffer: HBS-EP+, pH7.4). Purified ISVDs were injected for 2 minutes (flow rate 45 μL/min) at different concentrations (between 0.3 nM and 1000 nM) and dissociation was followed for 900 s. Regeneration was performed by injecting 10 mM Glycine-HCl (pH 1.5) for 1 minute (flow rate 45 μL/min). […] Processed sensorgrams were analyzed based on the 1:1 interaction model (Langmuir binding model) using ProteOn Manager 3.1.0 (Version 3.1.0.6) software.

[6] = target: T5, cyno GPC3 (recombinant, in house produced) (cynomolgus, UniProt A0A2K5VK50 24-558); experiment: as above
T5 construct: also called cynomolgus Glypican-3
Protocol: as §1

[7] = target: T6, Cynomolgus TCR(AEA41865/AEA41866)-zipper protein (cynomolgus); experiment: SPR, ProteOn XPR36; TCR-zipper protein immobilised by amine coupling
T6 construct: also called cyTCR-zipper; cyTCR(AEA41865)-zipper
T6 TCR alpha: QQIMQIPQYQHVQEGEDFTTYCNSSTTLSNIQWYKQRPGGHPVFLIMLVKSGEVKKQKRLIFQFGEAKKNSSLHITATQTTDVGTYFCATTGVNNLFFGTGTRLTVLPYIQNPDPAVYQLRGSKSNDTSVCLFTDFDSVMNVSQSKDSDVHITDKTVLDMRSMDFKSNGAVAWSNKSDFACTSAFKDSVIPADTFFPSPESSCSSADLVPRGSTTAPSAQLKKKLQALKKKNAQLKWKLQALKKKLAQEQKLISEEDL
T6 TCR beta: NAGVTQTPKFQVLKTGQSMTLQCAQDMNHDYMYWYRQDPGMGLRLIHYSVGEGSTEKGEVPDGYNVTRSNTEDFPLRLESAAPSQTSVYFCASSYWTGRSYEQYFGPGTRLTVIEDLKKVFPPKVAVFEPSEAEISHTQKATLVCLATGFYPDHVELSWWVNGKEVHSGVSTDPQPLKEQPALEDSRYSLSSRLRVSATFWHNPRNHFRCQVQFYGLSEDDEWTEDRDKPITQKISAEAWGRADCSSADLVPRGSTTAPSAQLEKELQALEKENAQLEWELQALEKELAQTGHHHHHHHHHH
Protocol: Purified ISVDs were injected for 2 minutes (flow rate 45 μL/min) at different concentrations (between 0.2 nM and 200 nM) and dissociation was followed for 900 s. Regeneration was performed by injecting 3 M MgCl₂ for 3 minutes (flow rate 90 μL/min). […] Processed sensorgrams were analyzed based on the 1:1 interaction model (Langmuir binding model) using ProteOn Manager 3.1.0 (Version 3.1.0.6) software.

[8] = target: T7, cyno GPC3 on CHO-Flp-In cells (cynomolgus, UniProt A0A2K5VK50 24-553); experiment: flow cytometry, binding to CHO-Flp-In cells overexpressing cyno GPC3
T7 construct: whole, on cells; also called CHO cyGPC3

human GPC3 on cells [9] = target: T2, human GPC3 on cells; experiment: flow cytometry, binding to CHO-Flp-In cells overexpressing human GPC3
[10] = target: T3, human TCR on primary human T cells; experiment: flow cytometry competition on primary human T cells; competitor Flag-tagged T017000624 at EC30
Protocol: (§2) T cells (human T cells obtained as described in Example 3 and cyno T cells purchased from LPT laboratory, Germany) were thawed and counted on the day of the assay and diluted to a concentration of 1E+06 cells/mL, before adding 75 μL to the wells of a V-bottom 96-well plate (Greiner, cat no 651180). Cells were washed once with cold FACS buffer, before adding 25 μL Nb and 25 μL competitor to the wells. […] Cells were resuspended and plates were incubated at 4° C. for 90 minutes, after which plates were washed twice in cold FACS buffer. […] Plates were washed twice in cold FACS buffer. […] Plates were washed twice in cold FACS buffer. Cells were resuspended in 55 μL 1/1000 diluted Propidium Iodide (Sigma-Aldrich, cat no P4170) in FACS buffer before acquiring data on the MACSQuant X (Miltenyi biotec).

[11] = target: T8, cynomolgus TCR on primary cynomolgus T cells (cynomolgus); experiment: flow cytometry competition on primary cynomolgus T cells; competitor Flag-tagged T017000623 at EC30
T8 construct: whole, on cells; also called cyno TCRαβ
Protocol: as §2

[12] = target: T9, Human T cell receptor on human primary T cells (human, UniProt P01848 1-140; P01850 1-176); experiment: flow cytometry, human primary T cells
T9 construct: whole, on cells
T9 TCR alpha (looked up): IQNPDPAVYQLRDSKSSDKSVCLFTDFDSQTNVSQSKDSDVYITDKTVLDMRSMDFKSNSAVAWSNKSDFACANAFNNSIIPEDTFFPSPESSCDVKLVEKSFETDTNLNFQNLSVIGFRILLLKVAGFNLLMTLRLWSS
T9 TCR beta (looked up): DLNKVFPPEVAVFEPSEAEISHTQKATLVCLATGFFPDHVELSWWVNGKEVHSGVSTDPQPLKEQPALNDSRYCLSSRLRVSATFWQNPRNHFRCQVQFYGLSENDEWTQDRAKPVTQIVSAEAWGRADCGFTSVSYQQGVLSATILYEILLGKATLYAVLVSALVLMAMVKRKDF

[13] = target: T9, Human T cell receptor on human primary …; experiment: flow cytometry, human primary T cells
[14] = target: T10, Cynomolgus TCR(AEA41865/AEA41866)-zipper protein (cynomolgus monkey); experiment: table head: SPR ProteOn XPR36; text: BLI, Octet RED384, 25 C, immobilised TCR-zipper
T10 construct: also called cyTCR-zipper protein; cynoTCR zipper
T10 TCR alpha: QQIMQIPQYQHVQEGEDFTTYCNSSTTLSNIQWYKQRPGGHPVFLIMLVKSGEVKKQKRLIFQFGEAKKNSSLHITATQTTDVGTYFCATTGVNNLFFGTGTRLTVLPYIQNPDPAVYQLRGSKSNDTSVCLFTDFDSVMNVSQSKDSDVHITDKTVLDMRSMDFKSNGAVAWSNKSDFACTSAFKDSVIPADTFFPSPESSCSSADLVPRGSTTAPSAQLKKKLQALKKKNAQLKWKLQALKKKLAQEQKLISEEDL
T10 TCR beta: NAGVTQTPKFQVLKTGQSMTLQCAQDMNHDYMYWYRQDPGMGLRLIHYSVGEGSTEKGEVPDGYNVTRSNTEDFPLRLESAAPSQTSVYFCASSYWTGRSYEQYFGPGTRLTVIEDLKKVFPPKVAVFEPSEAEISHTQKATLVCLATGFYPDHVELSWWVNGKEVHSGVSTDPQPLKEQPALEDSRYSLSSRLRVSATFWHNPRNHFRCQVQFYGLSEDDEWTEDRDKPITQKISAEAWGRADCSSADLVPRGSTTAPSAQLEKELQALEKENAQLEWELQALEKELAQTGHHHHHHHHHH
Protocol: (§3) Affinity constants (KD) were calculated applying a 1:1 interaction model using the ForteBio Data Analysis software.

[15] = target: T11, Cynomolgus TCR(AEA41865/AEA41866)-zipper protein (cynomolgus monkey); experiment: BLI (Octet RED384), KD on cyTCR-zipper against KD on huTCR-zipper
T11 construct: also called cyTCR-zipper; cynoTCR-zipper protein
T11 TCR alpha: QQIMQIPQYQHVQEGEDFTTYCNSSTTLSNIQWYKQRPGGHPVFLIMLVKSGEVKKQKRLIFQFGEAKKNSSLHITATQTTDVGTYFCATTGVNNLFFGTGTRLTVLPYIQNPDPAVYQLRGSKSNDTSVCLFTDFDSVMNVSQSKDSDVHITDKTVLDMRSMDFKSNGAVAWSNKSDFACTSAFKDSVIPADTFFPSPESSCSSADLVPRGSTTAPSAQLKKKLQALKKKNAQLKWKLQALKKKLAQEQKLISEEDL
T11 TCR beta: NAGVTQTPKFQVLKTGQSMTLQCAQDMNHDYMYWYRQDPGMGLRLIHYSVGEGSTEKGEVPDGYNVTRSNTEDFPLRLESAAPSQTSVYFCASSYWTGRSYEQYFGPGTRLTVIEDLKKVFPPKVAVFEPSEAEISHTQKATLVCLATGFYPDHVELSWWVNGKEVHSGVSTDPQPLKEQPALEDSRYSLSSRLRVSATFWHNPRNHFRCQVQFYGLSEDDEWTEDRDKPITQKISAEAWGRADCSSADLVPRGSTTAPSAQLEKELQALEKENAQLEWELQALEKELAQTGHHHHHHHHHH
Protocol: as §3

B1: monovalent CD123 building block (VHH)
VHH: EVQLVESGGGVVQPGGSLRLSCAASGVIFSGNVMGWYRRQAPGKEREWVAAIAEGGSILYRDSVKGRFTISRDNAKNTVYLQMNSLRPEDTALYYCNSHPPVLPYWGQGTLVTVSS
How did the “difference in EC50 between human and cynomolgus monkey” value [1] turn out when B1 was run?
The value was 3 fold.

B2: A022600424 (other)
chain: DVQLVESGGGVVQPGGSLRLSCVASGYVHKINFYGWYRQAPGKEREKVAHISIGDQTDYADSAKGRFTISRDESKNTVYLQMNSLRPEDTAAYYCRALSRIWPYDYWGQGTLVTVSSGGGGSEVQLVESGGGVVQPGGSLRLSCAASGFTFSSFAMTWVRRPPGKGLEWVATITNKGVTSYADSVKGRFTISRDNAKNTLYLQMNSLRPEDTALYICANARRTGPRAPTDIGSYRGQGTLVTVSSGGGGSGGGSEVQLVESGGGVVQPGGSLRLSCAASGSIFRSVFSSSTMEWYRQAPGKKRELVARIAPGEGTYYGALYADSVKGRFTISRDNAKNTVYLQMNSLRPEDTALYYCASGVAWGQGTLVTVSSGGGGSGGGSEVQLVESGGGVVQPGGSLRLSCAASGFTFRSFGMSWVRQAPGKGPEWVSSISGSGSDTLYADSVKGRFTISRDNSKNTLYLQMNSLRPEDTALYYCTIGGSLSRSSQGTLVTVSSA
notes: also called T017000680-5GS-A022600351-9GS-A022600314-9GS-ALB23002-A
With B2 as the binder, how does the “IC50 (M) BxPC-3, xCELLigence human TDC assay, E:T 15:1, 60 h” value (human GPC3 on cells [2]) read?
The value was greater than 1e-07 M.

And the “IC50 (M) HepG2, xCELLigence human TDC assay, E:T 15:1, 60 h” value (human GPC3 on cells [2])?
Its value is 1.15e-10 M.

And the “IC50 (M) Huh-7, xCELLigence human TDC assay, E:T 15:1, 60 h” value (human GPC3 on cells [2])?
Its value is 1.16e-10 M.

What about the “IC50 (M) NCI-H23, xCELLigence human TDC assay, E:T 15:1, 60 h” value (human GPC3 on cells [2]) of the same binder?
The value was greater than 1e-07 M.

And the “IC50 (M) NCI-H661, xCELLigence human TDC assay, E:T 15:1, 60 h” value (human GPC3 on cells [2])?
The value was 1.14e-10 M.

And the “Primary hu T cells IC50 (M), xCELLigence TDC assay on Huh-7, E:T 15:1, 60 h” value [3]?
Its value is 7.59e-11 M.

What about the “Primary cy T cells IC50 (M), xCELLigence TDC assay on Huh-7, E:T 15:1, 60 h” value [4] of the same binder?
Its value is 2.29e-10 M.

What about the EC50 (human GPC3 on cells [5]) of the same binder?
Its EC50 is 1.25 nM.

And the Kd (human GPC3 (recombinant))?
Its Kd is less than 0.0056 nM.

What about the Kd [6] of the same binder?
The Kd was less than 0.0059 nM.

And the Kd [7]?
The Kd was 5.4 nM.

And the EC50 [8]?
Its EC50 is 1.11 nM.

And the EC50 (human GPC3 on cells [9])?
Its EC50 is 1.82 nM.

And the IC50 [10]?
Its IC50 is 170 nM.

What about the IC50 [11] of the same binder?
The IC50 was 250 nM.

B3: T0170056G05 (VHH, not shown: small tags and cut ends)
VHH: EVQLVESGGGLVQPGGSLRLSCVASGDVHKINFLGWYRQAPGKEREKVAHISIGDQTDYADSAKGRFTISRDESKNMVYLQMNSLKPEDTAVYFCRAFSRIYPYDYWGQGTLVTVSS
notes: also called T01700056G05; parental anti-TCR ISVD
For B3, which EC50 [12] is on record?
The EC50 was 140 nM.

What about the EC50 [13] of the same binder?
Its EC50 is 83 nM.

What about the Kd [14] of the same binder?
Its Kd is 170 nM.

B4: T0170056G05 (VHH, not shown: small tags and cut ends)
VHH: EVQLVESGGGLVQPGGSLRLSCVASGDVHKINFLGWYRQAPGKEREKVAHISIGDQTDYADSAKGRFTISRDESKNMVYLQMNSLKPEDTAVYFCRAFSRIYPYDYWGQGTLVTVSS
notes: as for B3
For B4, which “difference in human-cynomolgus cross-reactivity based on KD” value [15] is on record?
The value was 4.5 fold.
